According to US20080102065A1 (published 2008):

T1: cynomolgus monkey EpoR (cynoEpoR) (cynomolgus monkey, UniProt A0A2K5WKK4 25-250)
T1 construct: Soluble protein (coated in ELISA, analyte in SPR)
T1 sequence: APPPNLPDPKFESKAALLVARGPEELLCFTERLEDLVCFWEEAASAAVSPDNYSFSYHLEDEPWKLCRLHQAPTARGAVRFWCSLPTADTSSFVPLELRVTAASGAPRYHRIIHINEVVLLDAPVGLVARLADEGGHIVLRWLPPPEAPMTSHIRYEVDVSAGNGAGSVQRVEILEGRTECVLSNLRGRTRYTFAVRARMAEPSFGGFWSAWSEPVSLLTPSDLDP

T2: mouse EpoR (muEpoR) (mouse, UniProt P14753 25-249, limits assumed)
T2 sequence (looked up): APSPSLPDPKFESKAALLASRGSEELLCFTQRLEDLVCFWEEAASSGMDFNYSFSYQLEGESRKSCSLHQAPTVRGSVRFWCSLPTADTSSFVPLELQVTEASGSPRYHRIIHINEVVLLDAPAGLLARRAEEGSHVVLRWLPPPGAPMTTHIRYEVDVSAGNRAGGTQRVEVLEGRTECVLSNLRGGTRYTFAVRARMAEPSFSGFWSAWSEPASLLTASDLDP

T3: huEpoR protein (soluble human erythropoietin receptor) (human, UniProt P19235 25-250, limits assumed)
T3 construct: also called soluble huEpoR; biotinylated huEpoR
T3 sequence (looked up): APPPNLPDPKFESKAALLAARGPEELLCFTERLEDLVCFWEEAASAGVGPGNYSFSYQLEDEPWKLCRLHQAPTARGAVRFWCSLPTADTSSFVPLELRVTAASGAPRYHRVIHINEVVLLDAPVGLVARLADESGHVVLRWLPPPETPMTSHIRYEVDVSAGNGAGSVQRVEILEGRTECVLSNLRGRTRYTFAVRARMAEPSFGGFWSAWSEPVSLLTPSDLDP

T4: huEpoR expressed on the cell surface (UT-7 cells) (human, UniProt P19235 25-508)
T4 sequence (looked up): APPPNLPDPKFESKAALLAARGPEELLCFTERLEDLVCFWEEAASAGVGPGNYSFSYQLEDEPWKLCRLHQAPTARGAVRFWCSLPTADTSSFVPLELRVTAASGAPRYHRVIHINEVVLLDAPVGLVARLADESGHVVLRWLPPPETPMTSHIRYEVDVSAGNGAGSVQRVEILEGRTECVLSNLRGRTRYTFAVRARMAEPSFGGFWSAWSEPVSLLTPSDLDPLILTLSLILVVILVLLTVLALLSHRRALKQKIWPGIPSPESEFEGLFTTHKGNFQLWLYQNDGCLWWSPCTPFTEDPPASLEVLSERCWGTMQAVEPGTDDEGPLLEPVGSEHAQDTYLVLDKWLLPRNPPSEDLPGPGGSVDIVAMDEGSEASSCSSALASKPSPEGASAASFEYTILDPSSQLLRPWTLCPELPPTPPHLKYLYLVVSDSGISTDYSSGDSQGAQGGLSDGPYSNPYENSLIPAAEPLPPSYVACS


Columns and labels:
[1] = target: T1, cynomolgus monkey EpoR (cynoEpoR); assay: SPR, Biacore T100; scFv-Fc captured on anti-human IgG Fc CM5 chip, EpoR as analyte; steady-state fit; steady-state fit; cyno EpoR
Method: (§1) Surface plasmon resonance experiments were conducted at 25° C. using a Biacore T100 instrument (Biacore AB, Uppsala, Sweden) equipped with a CM5 sensor chip. Each flow cell on the CM5 chips was activated with a 1:1 (v/v) mixture of 0.1 M N-hydroxysuccinimide (NHS) and 0.4 M1-ethyl-3-(3-dimethylaminopropyl) carbodiimide hydrochloride (EDC). Fcγ Fragment Specific AffiniPure Goat Anti-Human IgG antibody at 30 μg/ml in 10 mM sodium acetate, pH 5.0 was immobilized to two flow cells on the CM5 chips using standard amine coupling chemistry with a target level of 10,000 Resonance Units (RU). Residual reactive surfaces were deactivated with an injection of 1 M ethanolamine. The running buffer was then switched to HBS-EP+0.1 mg/ml BSA for all remaining steps.
(§2) For each scFv-Fc protein to be tested, the scFv-Fc protein was diluted in running buffer to 200 ng/ml and injected over the test flow cell at 10 μl/min for 2 minutes to capture the maxibody. […] A flow rate of 50 μl/min was used and a 1 minute association phase followed by a 5 minute (for cyno EpoR) or 10 minute (for hu EpoR) dissociation phase. After each cycle the surfaces were regenerated with a 30 second injection of 10 mM glycine pH 1.5. Fresh scFv-Fc protein was then captured on the test flow cell to prepare for the next cycle.

[2] = target: T2, mouse EpoR (muEpoR); assay: ELISA on coated muEpoR, scFv-Fc at 5 µg/ml (Example 17)
Method: The cross reactivity of certain clones in scFv-Fc format was tested using an ELISA Assay. […] 100 μl of 1 μg/ml (in 50 mM NaHCO3, pH8.5) cynoEpoR or muEpoR was added to each well on a polysorp ELISA plate and incubated at 4° C. overnight. After blocking the wells with 4% milk/PBS/0.1% Tween20 for 1 hour at room temperature, plates were washed three times with PBS/0.1% Tween20. 100 μl of 5 μg/ml scFv-Fc was added to each well and incubated for 1 hour at 25° C. […] ABTS (2,2′-azino-bis(3-ethylbenzthiazoline-6-sulfonic acid)) was used as a substrate and the absorption was measured at 405 nm on a plate reader.

[3] = target: T3, huEpoR protein (soluble human …); assay: SPR, Biacore T100; scFv-Fc captured on anti-human IgG Fc CM5 chip, EpoR as analyte; 1:1 fit;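 note: measured at 25 °C in HBS-EP buffer with 0.1 mg/ml BSA, flowed at 50 µl/min, 1 min association then dissociation (10 min human, 5 min cyno EpoR)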
Method: as §1, §2

[4] = target: T4, huEpoR expressed on the cell surface …; assay: cell-based or functional assay

Kd [1] [nM]	binding result [2]	Kd [3] [nM]	koff [3] [s⁻¹]	kon [3] [M⁻¹ s⁻¹]	Average EC50 (nM), UT-7-luciferase (STAT5 reporter) assay [4] [nM]	Ratio (EC50 of Epo / EC50 of the scFv-Fc), UT-7-luciferase assay [4]	Binder
4890	no binding (tested: 5 µg/ml)	847	0.558	659000	0.0154	0.623	Mxb 318 (clone 318 scFv-Fc protein) (Fc fusion, Tested as scFv-Fc (maxibody) with an Fc derived from human IgG1) VH: QVQLVESGGGLVQPGGSLRLSCAVSGFTFSKYWMTWVRQAPGKGLEWVANIKPDGSEKYYVESVKGRFTISRDNAKNSVYLQMNSVRAEDTAVYYCARVSRGGSFSDWGQGTLVTVSS VL: QSVLTQPPSASGSPGQSVTISCTGTSSDVGGYNYVSWYQQHPGRAPKLIIYEVSKRPSGVPDRFSGSKSGNTASLTVSGLQADDEADYYCNSYAGSIYVFGSGTKVTVL
5810	no binding (tested: 5 µg/ml)	378	0.203	536000	0.11	0.088	Mxb 34 (clone 34 scFv-Fc protein) (Fc fusion, Tested as scFv-Fc (maxibody) with an Fc derived from human IgG1) VH: QVQLQQSGAEVKKPGASVKVSCKASGYTFSGYYMHWVRQAPGQGLEWMGWINPNSGSTNYAQKFLGRVTMTRDTSISTAYMELSSLRSDDTAVYYCARGHSGDYFDYWGQGTLVTVSA VL: EIVLTQSPSSLSASVGDRVTITCRASQSVSSWLAWYQQRPGQAPKLLIYAARLRGGGPSRFSGSGSGTEFTLTISSLQPEDFATYFCQQSYSTPISFGGGTKLEIK
